We go through 4 molecules from paper PMC7699706, “Responses of DNA Mismatch Repair Proteins to a Stable G-Quadruplex Embedded into a DNA Duplex Structure”.

Substitutions are numbered along the chain they refer to.

Series [1] deals with T1, rsMutS (Rhodobacter sphaeroides strain 2.4.1, UniProt Q3IYI5 1-875).
T1 sequence: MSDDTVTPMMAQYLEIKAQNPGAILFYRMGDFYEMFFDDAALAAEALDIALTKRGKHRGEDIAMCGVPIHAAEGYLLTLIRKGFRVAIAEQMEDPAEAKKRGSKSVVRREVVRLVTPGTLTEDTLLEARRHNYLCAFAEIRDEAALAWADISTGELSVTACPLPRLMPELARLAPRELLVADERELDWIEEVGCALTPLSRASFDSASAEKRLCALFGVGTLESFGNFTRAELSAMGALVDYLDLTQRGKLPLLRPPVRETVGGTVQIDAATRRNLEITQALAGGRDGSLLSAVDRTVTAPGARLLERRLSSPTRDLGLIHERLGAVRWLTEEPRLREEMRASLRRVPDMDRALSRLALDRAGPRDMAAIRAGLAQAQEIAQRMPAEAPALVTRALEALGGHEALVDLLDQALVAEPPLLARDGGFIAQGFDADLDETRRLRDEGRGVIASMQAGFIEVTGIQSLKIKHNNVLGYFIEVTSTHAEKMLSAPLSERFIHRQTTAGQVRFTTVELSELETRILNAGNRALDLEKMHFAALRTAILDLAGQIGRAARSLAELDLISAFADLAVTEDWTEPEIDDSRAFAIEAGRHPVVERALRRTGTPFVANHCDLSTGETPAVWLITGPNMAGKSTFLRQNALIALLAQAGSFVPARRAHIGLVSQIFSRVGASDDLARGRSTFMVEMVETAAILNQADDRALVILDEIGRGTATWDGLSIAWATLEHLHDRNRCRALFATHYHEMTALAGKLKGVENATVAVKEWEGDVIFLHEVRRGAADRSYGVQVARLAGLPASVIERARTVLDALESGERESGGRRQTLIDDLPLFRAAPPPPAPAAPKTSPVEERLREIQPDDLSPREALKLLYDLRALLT
Kind of series: EMSA; 1 mM ATPgS, 5 mM MgCl2; MutS EMSA: 5 nM DNA, 20 mM HEPES-KOH pH 7.9, 5 mM MgCl2, 120 mM KCl, 0.5 mg/mL BSA, 1 mM nucleotide, 37 C 15 min; MutL EMSA: 100 nM DNA, 20 mM HEPES pH 8.0 (10). As to conditions: protein: recombinant; tags: N-terminal His6 (pET15b); chain copies: 2; label: 3'-TAMRA on strand 2 (95G4); blunt; 19-nt insert in strand 2 folded as intramolecular parallel G4 within duplex.

The target in series [2] is T2, ecMutS (Escherichia coli, UniProt P23909 1-853).
T2 sequence: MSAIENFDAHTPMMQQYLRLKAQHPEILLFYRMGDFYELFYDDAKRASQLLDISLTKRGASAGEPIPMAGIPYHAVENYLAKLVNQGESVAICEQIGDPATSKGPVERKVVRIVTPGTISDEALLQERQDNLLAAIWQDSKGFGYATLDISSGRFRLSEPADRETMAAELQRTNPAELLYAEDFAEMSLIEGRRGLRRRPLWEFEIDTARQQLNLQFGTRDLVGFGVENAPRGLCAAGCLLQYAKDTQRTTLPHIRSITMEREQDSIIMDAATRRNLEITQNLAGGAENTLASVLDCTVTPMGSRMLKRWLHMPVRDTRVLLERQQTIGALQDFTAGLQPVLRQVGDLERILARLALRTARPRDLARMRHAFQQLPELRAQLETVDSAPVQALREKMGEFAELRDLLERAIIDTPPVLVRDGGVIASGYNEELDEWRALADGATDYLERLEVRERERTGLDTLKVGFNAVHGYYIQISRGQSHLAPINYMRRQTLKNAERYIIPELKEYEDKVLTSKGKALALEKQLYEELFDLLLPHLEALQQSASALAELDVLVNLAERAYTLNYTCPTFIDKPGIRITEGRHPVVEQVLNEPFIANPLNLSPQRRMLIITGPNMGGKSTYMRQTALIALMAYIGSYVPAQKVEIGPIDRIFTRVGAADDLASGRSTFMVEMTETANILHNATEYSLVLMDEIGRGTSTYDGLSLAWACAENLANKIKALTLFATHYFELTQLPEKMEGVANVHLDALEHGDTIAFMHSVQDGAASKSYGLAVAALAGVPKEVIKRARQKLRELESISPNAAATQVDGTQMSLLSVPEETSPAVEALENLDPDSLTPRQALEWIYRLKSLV
Described as above. As to conditions: protein: recombinant; chain copies: 2; label: 3'-TAMRA on strand 2 (95G4); blunt; 19-nt insert in strand 2 folded as intramolecular parallel G4 within duplex.

Series [3] has as its target T3, ecMutL (Escherichia coli, UniProt P23367 1-615). Description: EMSA; no nucleotide, on ice, 100 nM DNA; MutS EMSA: 5 nM DNA, 20 mM HEPES-KOH pH 7.9, 5 mM MgCl2, 120 mM KCl, 0.5 mg/mL BSA, 1 mM nucleotide, 37 C 15 min; MutL EMSA: 100 nM DNA, 20 mM HEPES pH 8.0 (10). To be noted: protein: recombinant; chain copies: 2; label: 3'-TAMRA on strand 2 (95G4); blunt; 19-nt insert in strand 2 folded as intramolecular parallel G4 within duplex.

The target of series [4] is T1, rsMutS. Kind of series: EMSA; 1 mM ATP, 5 mM MgCl2; MutS EMSA: 5 nM DNA, 20 mM HEPES-KOH pH 7.9, 5 mM MgCl2, 120 mM KCl, 0.5 mg/mL BSA, 1 mM nucleotide, 37 C 15 min; MutL EMSA: 100 nM DNA, 20 mM HEPES pH 8.0 (10). To be noted: protein: recombinant, tags: N-terminal His6 (pET15b), chain copies: 2, blunt.
Series [5] deals with T2, ecMutS. Described as above. As to conditions: protein: recombinant, chain copies: 2, blunt.
In series [6] the target is T1, rsMutS. Kind of series: EMSA; 1 mM ADP, 5 mM MgCl2; MutS EMSA: 5 nM DNA, 20 mM HEPES-KOH pH 7.9, 5 mM MgCl2, 120 mM KCl, 0.5 mg/mL BSA, 1 mM nucleotide, 37 C 15 min; MutL EMSA: 100 nM DNA, 20 mM HEPES pH 8.0 (10). As to conditions: protein: recombinant, tags: N-terminal His6 (pET15b), chain copies: 2, blunt.
The target of series [7] is T2, ecMutS. The description is as above. To be noted: protein: recombinant, chain copies: 2, blunt.
In series [8] the target is T3, ecMutL. Description: EMSA; no nucleotide, on ice, 100 nM DNA; MutS EMSA: 5 nM DNA, 20 mM HEPES-KOH pH 7.9, 5 mM MgCl2, 120 mM KCl, 0.5 mg/mL BSA, 1 mM nucleotide, 37 C 15 min; MutL EMSA: 100 nM DNA, 20 mM HEPES pH 8.0 (10). As to conditions: protein: recombinant, chain copies: 2, blunt.
Where [9] appears, read: label: 3'-TAMRA on strand 2 (95G4), 19-nt insert in strand 2 folded as intramolecular parallel G4 within duplex.
Where [10] appears, read: label: 3'-TAMRA on strand 2 (76T), perfect duplex.
Setting [11] is: label: 3'-TAMRA on strand 2 (76T), single G/T mismatch.
Where [12] appears, read: label: 3'-TAMRA on strand 2 (95(GT)8), 19-nt unstructured (GT)8 loop in strand 2.

T3 sequence (P23367 whole entry): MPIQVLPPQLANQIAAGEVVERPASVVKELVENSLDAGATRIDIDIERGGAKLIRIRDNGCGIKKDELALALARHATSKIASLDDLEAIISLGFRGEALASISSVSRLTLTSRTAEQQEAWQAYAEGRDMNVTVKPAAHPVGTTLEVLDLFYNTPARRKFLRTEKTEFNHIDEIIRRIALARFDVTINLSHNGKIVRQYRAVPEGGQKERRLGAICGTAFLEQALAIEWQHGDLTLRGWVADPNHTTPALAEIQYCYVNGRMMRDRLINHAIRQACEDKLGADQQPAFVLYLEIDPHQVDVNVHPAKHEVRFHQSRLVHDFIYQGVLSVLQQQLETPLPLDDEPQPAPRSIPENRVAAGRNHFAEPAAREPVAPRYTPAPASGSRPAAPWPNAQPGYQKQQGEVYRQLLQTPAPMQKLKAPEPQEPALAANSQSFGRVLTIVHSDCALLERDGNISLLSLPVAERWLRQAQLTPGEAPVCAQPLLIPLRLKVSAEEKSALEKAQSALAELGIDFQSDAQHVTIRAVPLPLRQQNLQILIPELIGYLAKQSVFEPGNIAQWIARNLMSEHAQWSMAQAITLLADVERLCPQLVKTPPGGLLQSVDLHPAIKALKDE

B1: 76/95G4-A/T (mixed)
DNA 1: TCCTTTCGCGCTTGGATCCTATGAGCGTTACTCGAGCATATGGCTCAGCTGCCAAGCACCAGTGTCAGCGTCCTAT
DNA 2: ATAGGACGCTGACACTGGTGCTTGGCAGCTGAGCCATATTTGGGTGGGTGGGTGGGTTGCTCGAGTAACGCTCATAGGATCCAAGCGCGAAAGGA
modifications: N6-methyl-dA at position 16 of strand 1 (Gm6ATC)
For B1, the Kd in the series with rsMutS [1] is 46 ± 5 nM; with ecMutS [2], 31 ± 4 nM; with ecMutL [3] it was around 200 nM; in the series with rsMutS [4] (setting [9]) it was 23 ± 3 nM; in the series with ecMutS [5] (setting [9]) it was 32 ± 4 nM; with rsMutS [6] (setting [9]) it was 23 ± 3 nM. Besides, the Kd with ecMutS [7] (setting [9]) turned out to be 23 ± 5 nM.

B2: 76/76-A/T (dsDNA)
DNA 1: B1 DNA 1
DNA 2: ATAGGACGCTGACACTGGTGCTTGGCAGCTGAGCCATATGCTCGAGTAACGCTCATAGGATCCAAGCGCGAAAGGA
modifications: N6-methyl-dA at position 16 of strand 1 (Gm6ATC)
As for B2, in the series with ecMutL [8] (setting [10]), the binding signal was > 3.7 fold lower binding extent than 76/95G4-A/T at 0.1 uM ecMutL (at least). Further, the equilibrium dissociation constant (Kd) with rsMutS [4] (setting [10]) was 80 ± 30 nM; in the series with ecMutS [5] (setting [10]) it was 50 ± 10 nM; in the series with rsMutS [6] (setting [10]), 51 ± 4 nM; with ecMutS [7] (setting [10]) it was 38 ± 4 nM.

B3: 76/76-G/T (dsDNA)
DNA 1: B1 DNA 1 with A55G
DNA 2: B2 DNA 2
modifications: N6-methyl-dA at position 16 of strand 1 (Gm6ATC)
With B3, in the series with ecMutL [8] (setting [11]), the binding signal is > 3.7 fold lower binding extent than 76/95G4-A/T at 0.1 uM ecMutL (at least). Besides, the Kd with rsMutS [4] (setting [11]) is 60 ± 10 nM; in the series with ecMutS [5] (setting [11]) it was 38 ± 4 nM; with rsMutS [6] (setting [11]), 27 ± 4 nM; in the series with ecMutS [7] (setting [11]), 35 ± 3 nM.

B4: 76/95(GT)8-A/T (mixed)
DNA 1: B1 DNA 1
DNA 2: B1 DNA 2 with G43T, G47T, G51T, G55T
modifications: N6-methyl-dA at position 16 of strand 1 (Gm6ATC)
Turning to B4, the binding signal with ecMutL [8] (setting [12]) is 1.9 fold lower binding extent than 76/95G4-A/T at 0.1 uM ecMutL. In addition, the dissociation constant (Kd) worked out at 43 ± 5 nM with rsMutS [4] (setting [12]), 44 ± 6 nM with ecMutS [5] (setting [12]), 31 ± 3 nM in the series with rsMutS [6] (setting [12]) and 32 ± 3 nM in the series with ecMutS [7] (setting [12]).
